{
  "source": "paper PMC8136814",
  "biological_target": "R3B2 1-273 (RIIID and first dsRBD) (Mucor lusitanicus)",
  "experiment": "SEC-MALS",
  "data": [
    {"substance": "R3B2 1-273 (RIIID and first dsRBD) (domain or fragment)", "values": [
      {"measurement": "stoichiometry N", "result": 2}
    ]}
  ]
}
